Consider four molecules from US20220235123A1 (UNIVERSITY OF TORONTO, published 2022).

For assay [1], the target named is T1, recombinant human VEGF 165 isoform (human, UniProt P15692 27-191).
T1 construct: mature
Kind of assay: competitive ELISA in solution, 10 pM hVEGF-165, free VEGF read with Quantikine kit. From the text: (§1) Kd calculated from the data fitted with a 5 parameter asymmetric model with Prism software.
Target sequence in this assay (P15692 other isoform, or with tags, fused parts or gaps): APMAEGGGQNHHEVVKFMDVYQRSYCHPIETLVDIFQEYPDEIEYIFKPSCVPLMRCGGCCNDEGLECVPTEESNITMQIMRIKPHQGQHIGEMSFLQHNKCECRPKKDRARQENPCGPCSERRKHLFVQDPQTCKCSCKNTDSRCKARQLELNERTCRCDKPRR

Assay [2] has as its target T2, recombinant human vascular endothelial growth factor (hVEGF) 121 (human, UniProt P15692 27-147).
T2 construct: mature; also called human VEGF-A121; hVEGF 121 isoform
T2 sequence (looked up): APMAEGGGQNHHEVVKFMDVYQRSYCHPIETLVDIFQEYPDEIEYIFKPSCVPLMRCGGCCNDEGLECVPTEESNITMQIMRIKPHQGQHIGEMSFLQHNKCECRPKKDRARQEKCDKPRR
As to the kind of experiment: competitive ELISA, 100 pM Fab with serial dilutions of hVEGF-121, free Fab caught on hVEGF-121 plate; Kd estimated from IC50.

Assay [3] concerns the target T2, recombinant human vascular endothelial …. As to the kind of experiment: SPR, off rate of hVEGF-121 binding.
Assay [4] shares this target. Kind of assay: single point competitive phage-ELISA: residual binding of the Fab-phage to hVEGF after competition with 1 nM hVEGF.
The target is the same in assay [5]. As to the kind of experiment: competitive Fab-ELISA.
In assay [6] the target is T1, recombinant human VEGF 165 isoform. As to the kind of experiment: competitive ELISA in solution: 5 pM hVEGF-165 incubated with serial dilutions of the antibody; hVEGF-165 captured and detected with the Quantikine human VEGF ELISA kit; 5 parameter fit.
Assay [7] has the same target. Kind of assay: competitive ELISA in solution: 5 pM hVEGF-165 incubated with serial dilutions of the antibody; hVEGF-165 captured and detected with the Quantikine human VEGF ELISA kit.
Assay [8] shares this target. As to the kind of experiment: cell-based or functional assay.
The target is the same in assay [9]. As to the kind of experiment: competitive ELISA in solution: 5 pM hVEGF-165 incubated with serial dilutions of the Fab; hVEGF-165 captured and detected with the Quantikine human VEGF ELISA kit. From the text:
FIG. 11. Competitive Fab-ELISA.
Since library FF01159-1 was designed with a deletion of one residue near the end of CDR-L2 (Kabat), the selected Fabs FF03033-4 and FF03033-8 were mutagenized to reintroduce previously deleted tyrosine residue back at the deleted position.

Assay [10] has the same target. Kind of assay: competitive ELISA in solution: 10 pM hVEGF-165 incubated with serial dilutions of the Fab; hVEGF-165 captured and detected with the Quantikine human VEGF ELISA kit.
From the text: FIG. 20. Competitive-ELISA. […] Kd was estimated using IC50 calculated from the data fitted with a 5 parameter asymmetric model with Prism software are shown in the table at the bottom of the figure.
as §1

B1: Fab 201 (Variant 201, produced from Clone #201) (Fab, V domains shown)
VH: EVQLVESGGGLVQPGGSLRLSCAASGFDLFHYSIHWVRQAPGKGLEWVAYIYPSYGYTYYADSVKGRFTISADTSKNTAYLQMNSLRAEDTAVYYCARHAWYYGWGLDYWGQGTLVTVSS
VL: DIQMTQSPSSLSASVGDRVTITCRASQAAYGRVAWYQQKPGKAPKLLIYKASELYAGVPSRFSGSRSGTDFTLTISSLQPEDFATYYCQQRGWYLFTFGQGTKVEIKR
notes: also called Fab-F8.y
Regarding B1, the Kd was 0.025 nM in [1] and 0.11 nM in assay [2].

B2: FF0117-A5 (Fab, V domains shown)
VH: EVQLVESGGGLVQPGGSLRLSCAASGFDLFHYSIHWVRQAPGKGLEWVAYIYPSYGYTYYADSVKGRFTISADTSKNTAYLQMNSLRAEDTAVYYCARHAWYYGWGLDYWGQGTLVTVSS
VL: DIQMTQSPSSLSASVGDRVTITCRASQSVSSAVAWYQQKPGKAPKLLIYSASSLYSGVPSRFSGSRSGTDFTLTISSLQPEDFATYYCQQRGWYLFTFGQGTKVEIK
notes: Fourth generation Fab; also called FF0117-A5 (2); Fab-A5
Consider B2, for which the koff in [3] stood at 0.000255 s⁻¹. In addition, the “Residual binding of competitive phage-ELISA 1nM” value in assay [4] is 14%. The Kd in [5] was determined as 0.08 nM.

B3: Fab FF03046-2 (Fab, V domains shown)
VH: EVQLVESGGGLVQPGGSLRLSCAASGFDLFHYSIHWVRQAPGKGLEWVAYIYPSYGYTYYADSVKGRFTISADTSKNTAYLQMNSLRAEDTAVYYCARHAWYYGWGLDYWGQGTLVTVSS
VL: DIQMTQSPSSLSASVGDRVTITCRASQAAYGRVAWYQQKPGKAPKLLIYKASELYAGVPSRFSGSRSGTDFTLTISSLQPEDFATYYCQQRGWYLFTFGQGTKVEIKR
notes: also called FF0346-2
With B3, the Kd in assay [6] came out at 0.09 nM. Further, the “IC50 (read off the curve)” value in assay [7] and in [9] was ~0.09 nM in each case. The “EC50, HUVEC proliferation assay” value in assay [8] stood at 0.2 nM.

B4: Fab variant 216 (Fab 216, derived from Clone #201) (Fab, V domains shown)
VH: EVQLVESGGGLVQPGGSLRLSCAASGFDLDHYSIHWVRQAPGKGLEWVAYIYPSYGYTYYADSVKGRFTISADTSKNTAYLQMNSLRAEDTAVYYCARHAWYYGWGLDYWGQGTLVTVSS
VL: DIQMTQSPSSLSASVGDRVTITCRASQAAYGRVAWYQQKPGKAPKLLIYKASELYAGVPSRFSGSRSGTDFTLTISSLQPEDFATYYCQQRGWYLFTFGQGTKVEIKR
As to B4, the “IC50 (read off the curve)” value in assay [10] is ~0.04 nM. The Kd in assay [1] was 0.035 nM.
